Legend:
[1] = target: T1, C183S FixK2 C183S (Bradyrhizobium diazoefficiens 110spc4) (UniProt O69245); test: EMSA; conditions: EMSA: 40 mM Tris-HCl pH 8, 10 mM MgCl2, 0.1 mM EDTA, 0.1 mM DTT, 150 mM KCl, 0.4 mM K3PO4, room temperature, 30 min; SPR: 40 mM Tris-HCl pH 7.0, 150 mM KCl …
T1 sequence: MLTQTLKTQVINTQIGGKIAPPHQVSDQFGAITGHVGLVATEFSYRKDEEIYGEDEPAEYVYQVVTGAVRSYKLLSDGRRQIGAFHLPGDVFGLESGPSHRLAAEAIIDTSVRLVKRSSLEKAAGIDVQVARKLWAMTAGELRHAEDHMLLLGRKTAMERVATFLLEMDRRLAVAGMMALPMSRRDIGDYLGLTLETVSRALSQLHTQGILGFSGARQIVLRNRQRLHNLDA

[2] = target: T2, C183D FixK2 C183D (Bradyrhizobium diazoefficiens 110spc4) (UniProt O69245); test: EMSA; conditions: EMSA: 40 mM Tris-HCl pH 8, 10 mM MgCl2, 0.1 mM EDTA, 0.1 mM DTT, 150 mM KCl, 0.4 mM K3PO4, room temperature, 30 min; SPR: 40 mM Tris-HCl pH 7.0, 150 mM KCl …; scale: fold higher protein concentration than C183S for similar shift
T2 sequence: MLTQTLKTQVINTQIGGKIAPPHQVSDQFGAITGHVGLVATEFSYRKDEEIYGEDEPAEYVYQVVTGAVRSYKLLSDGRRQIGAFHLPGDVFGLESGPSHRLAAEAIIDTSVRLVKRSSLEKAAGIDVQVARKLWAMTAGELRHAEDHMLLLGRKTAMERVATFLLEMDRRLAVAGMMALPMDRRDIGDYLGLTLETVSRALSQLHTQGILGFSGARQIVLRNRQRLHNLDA

[3] = target: C183D FixK2 protein variant of Bradyrhizobium diazoefficiens (Bradyrhizobium diazoefficiens) (UniProt Q89RK6); test: SEC; analytical SEC, Superdex 200 10/300 GL, room temperature, 40 mM Tris-HCl pH 7.0, 150 mM KCl, 0.1 mM EDTA; 100 µL samples loaded at 2.5-30 µM (native) or 2.5-40 µM (C183S, C183D); concentrations refer to the dimeric form; monomer-dimer equilibrium
[4] = target: C183S FixK2 protein variant of Bradyrhizobium diazoefficiens (Bradyrhizobium diazoefficiens) (UniProt Q89RK6); test: as above
[5] = target: FixK2 protein (native, wild type) of Bradyrhizobium diazoefficiens (Bradyrhizobium diazoefficiens) (UniProt Q89RK6); test: as above
[6] = target: T3, C183S FixK2 (Bradyrhizobium diazoefficiens 110spc4, UniProt O69245 1-232, C183S); test: SPR; sensorgram at 250 nM; nanomolar affinity only cited from earlier study; EMSA: 40 mM Tris-HCl pH 8, 10 mM MgCl2, 0.1 mM EDTA, 0.1 mM DTT, 150 mM KCl, 0.4 mM K3PO4, room temperature, 30 min; SPR: 40 mM Tris-HCl pH 7.0, 150 mM KCl, 0.1 mM EDTA, 0.005% Tween 20, 25 °C; conditions: protein: recombinant; tags: untagged after cleavage of C-terminal Mxe GyrA intein-CBD (IMPACT, pTXB1); chain copies: 2; label: biotin; blunt
T3 sequence: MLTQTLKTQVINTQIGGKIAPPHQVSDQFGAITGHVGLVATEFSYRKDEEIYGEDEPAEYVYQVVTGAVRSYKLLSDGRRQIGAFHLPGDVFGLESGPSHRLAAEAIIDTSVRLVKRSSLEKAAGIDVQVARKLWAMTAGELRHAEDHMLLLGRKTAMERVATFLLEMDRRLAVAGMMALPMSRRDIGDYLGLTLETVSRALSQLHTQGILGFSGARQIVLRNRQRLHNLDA

In the case of “AAGAACACAGCGCCAGAAACCACATTCACCCTCGCGGGGAATTGATTGAAATCAAGATAGGTGGATTTCTGTTAATGTGAGGCTTTCGCG (double strand) [fixNOQP promoter 90-bp PCR fragment]”, the binding [1] is reported as “binds” and the binding signal [2] is reported as 32.

Molecule “C183D FixK2 protein variant of Bradyrhizobium diazoefficiens (from UniProt Q89RK6 4-235) (natural protein)” has a stoichiometry N [3] of 2.

Molecule “C183S FixK2 protein variant of Bradyrhizobium diazoefficiens (from UniProt Q89RK6 4-235) (natural protein)” has a stoichiometry N [4] of 2.

Molecule “FixK2 protein (native, wild type) of Bradyrhizobium diazoefficiens (from UniProt Q89RK6 4-235) (natural protein)” has a stoichiometry N [5] of 2.

Work on fixNOQP promoter 90-bp PCR fragment yielded a binding signal [2] of 32.

B1: fixN_3 FixK2 box duplex (SPR) (dsDNA)
DNA 1: CCACCTATCTTGATTTCAATCAATTCCCCG
DNA 2: CGGGGAATTGATTGAAATCAAGATAGGTGG
modifications: 5'-biotin on reverse strand (S47)
B1: binds [6].
